Laboratory results published in the supplement of paper PMC9170038.

Tested on: K4 kissing-loop RNA reporter
Assay: apparent KD of K4 kissing-loop reporter; higher = weaker reporter binding
Settings: Eterna round: R107
Procedure: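 RNA-MaP round R107: designed RNA switches with theophylline, tryptophan, arginine or FMN aptamers are transcribed on-chip within common flanks. They are titrated with a labelled K4 kissing-loop RNA reporter in RNA-MaP buffer (100 mM Tris pH 7.5, 80 mM KCl, 4 mM MgCl2), without ligand or with the indicated ligand. Median apparent KD per design.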

[1] = input ligand: theophylline 20 uM
[2] = input ligand: tryptophan 2.4 mM
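Further: bound reporter read as fluorescence of individual clusters on recovered sequencing chips by microscopy, with normalized cluster intensities fitted with a binding model.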

Sequence	apparent KD of K4 kissing-loop reporter (input ligand: FMN 200 uM) [µM]	apparent KD of K4 kissing-loop reporter (input ligand: arginine 13.2 mM) [µM]	apparent KD of K4 kissing-loop reporter (input ligand: none) [µM]	apparent KD of K4 kissing-loop reporter [1] [µM]	apparent KD of K4 kissing-loop reporter [2] [µM]
AGAUAGGGCUGAAGGAGCGUCGGAGAAGAGAAGAAGAAAUCCAGUGAUGUUGGAUAAAUCCGACAGGUAGGUCGCAGUUUUAUGA [hbob_SS_Arginine_B_2t137]	0.122	0.135	0.115	0.179	0.119
AGAUGGCAGUGAUGUUGCUGUUGGAGGGAUAAGGAUAUUGGCUAAACAAGAAGGUAUCGGCGGCAUUGAGGAAUGGGAGGCGCCU [theeternabot_exclusion_KL_FMN_A_7]	0.53	0.329	0.51	0.449	0.405
AGAUUCGACACGGCCGCCACUCGUGGUGGAUUAUCCUAUGUAAGACAUGAGUGAUGUUCAUGUACGAGGACCGGGUGUUGAGUCU [KL-XTryp-B5 #analogue]	0.496	0.403	0.488	0.568	0.272
AGCAUUAUCAGAAGGAGCGUGUAUAAUUCAAGAGAAUUGUUUUCGAGUGAUGUUCGUAAUACACAGGUAGGUCGCUGAUAUAGCA [JR_ExcArginiB_Sub001]	0.224	0.258	0.257	0.302	0.221
AGCAUUUUCAGAAGGAGCGUGAAUUAUUCUUAAGUAUAUUAUACGAGUGAUGUUCGUAUUUCACAGGUAGGUCGCUGAUAUAGCA [JR_SSArginiB_Sub003]	0.0574	0.0892	0.0546	0.0762	0.0468
AGCGACUCGAAAGGGUCGCGGCUAAGGGAUACCAGUGAUGUUGGUCACCCUUGGCAGCCCAGAAGCCAAGCCACCAAAGGUGGCA [Omei KL Theo A Exc A v10]	0.124	0.099	0.119	0.114	0.116
AGCGGCGCGCUGGAUACCAGUGUCCGACGCGUUAGUAUAGAUCCAAAGUGAUGUUUUGGUCACCCUUGGCAGCCACCUCUGUCGG [theeternabot_exclusion_KL_Theo_B_29]	0.237	0.192	0.245	0.257	0.195
AGCUCAGCGUGACUCGAUAAGAGUCACAAACGAGGACCGGUACGGCCGCCACUCGAAAUAAAGGGAGUGAUGUUCUCGCUGAGCA [#SwitchBubble 4 #StaticStem #K4Late]	0.641	0.3	0.37	0.274	0.625
AGCUGCCGAAUAGAUACCAGUGUCUUUAGUGAUGUUUCAGAGCUGGCACGAUCAGAAGGUCACCCUUGGCAGCUAGUGCCAGCGU [theeternabot_exclusion_KL_Theo_B_39]	0.34	0.145	0.261	0.344	0.267
AGCUGUAGCAGAAGGAGCGACAGUUAUUCUGAUAGUACUCUGAGUGAUGUUCAGAACGACUGUCAGGUAGGUCGCUGUUACAGCU [Arg B Ex t8b]	0.166	0.167	0.169	0.143	0.162
AGGAGCGUGGGAUGUAAAUCGCACGCUCCUCGAGGACCGGUACGGCCGCCACUCGCUCGCGCCGAGUGAUGUUCGGCCGGCGAAC [#2 Same State - Tryptophan A Attempt #13 (HarryS)]	0.243	0.325	0.225	0.209	0.446
AGGAUCCACCAGUGAUGUUGGAAAUACAUCAAGGAUAUGACGAAAGUCAGAAGGUGGUAGACUGGACAAAGUCCAGUUGGAUCCA [KL-SSFMN-A18]	0.135	0.0549	0.0627	0.112	0.0664
AGGAUCCGUCGACAAAAGUCGACAAUAACCAAGGAUAUGACGAAAGUCAGAAGGUGGUCUUAUGACCAGUGAUGUUGGUGGAUCC [FmnA 15 #SwitchBubble #K4Late]	0.891	0.245	0.5	0.197	0.243
AGGAUCGAAGAUCCAGCAGUCAAGCAAUACCGAGGACCGGUACGGCCGCCACUCGGAGUGAUGUUCCGAAGACUGCAAAAUAAAA [#SwitchBubble 8]	0.64	1.05	0.955	0.592	0.0862
AGGAUGUAGUGAUGUUAUAUAAGAAGUAAACGAGGACCGGUACGGCCGCCACUCGAAGCGGCUACUAGCGCGCGCGCGCGCGCGC [ExTryptoA.Ca]	0.298	0.345	0.263	0.336	0.259
AGGCACGAGCAAGGAUAUCGAGUAGAGUGAUGUUCUGCCUGGGUUGGCCCGUAAGGGCCUUCCCAGCGAGAAGGUGCUCGUGCCU [#2 Same State - FMN A Attempt #10 (HarryS)]	0.233	0.505	0.647	0.679	0.536
AGGCACGAGCAAGGAUAUCGAGUAGAGUGAUGUUCUGCCUGGGUUGGCUCGCAAGGGCCUUCCCAGCGAGAAGGUGCUCGUGCCU [#2 Same State - FMN A Attempt #17 (HarryS)]	0.277	0.743	0.772	0.745	0.83
AGGGAUGUUAAAGGAUAUAGAAAGUGAUGUUAGAAAGUGAGUGAUGUUGAUGUAAGUGAUGAUAUGUUAGAAGGUUAACAAAACG [abc]	0.212	0.111	0.192	0.169	0.144
AGGGUAAGGCGUUAACAUGACACCUGGGAAGGAGCGCGGUACACCGCAGGUAGGUCGCCCAGUGAUGUUGGGUGUAAGUAUGAGU [KL-XArg-A23]	0.137	0.109	0.135	0.146	0.115
AGGUGAGAGUGAAGGAGCGAUCGCGCCAGUGAUGUUGGUGAGCAUGACGAAAGUCAUGCCGAUCAGGUAGGUCGCACUCUUACUC [Omei KL Arginine B SS B v3]	0.7	0.421	0.663	0.547	0.798
AGGUUUUGAUUAGGAUAUGCACUGAGGAGGAGAAUAUAGUGAUGUUAUAUAAGAGGAAGUAGUAGAGUAGAAGGGAUUGAGGUUU [SSFMNB.S]	0.208	0.167	0.224	0.21	0.158

Sequence	apparent KD of K4 kissing-loop reporter (input ligand: FMN 200 uM) [µM]	apparent KD of K4 kissing-loop reporter (input ligand: arginine 13.2 mM) [µM]	apparent KD of K4 kissing-loop reporter (input ligand: none) [µM]	apparent KD of K4 kissing-loop reporter [1] [µM]	apparent KD of K4 kissing-loop reporter [2] [µM]
AGUAAUGUCACGGCCGCCACUCUUUAUUGUUUUUAUAGUUAUAAAUCUUGCCAGUGAUGUUGGUAGAGGACCGGGUGACUUAAUA [#26 K4 Tryptophan B Same State]	0.222	0.208	0.245	0.199	0.194
AGUACGGACACGGCCGCCACUCAGAAGAAGACAGUAGUGAUGUUACUGAUGGUGAGAAUAAUAAAGAGGACCGGGUGUCGUGCAA [#05 K4 Tryptophan B Same State]	0.27	0.191	0.286	0.23	0.171
AGUGAUGUGGGAAGGAGCGGUAUAUGAGUUCAGUGAUGUUGAAGUGAUGCUGUAGUGUUGUGCCAGGUAGGUCGCCUAGAUGUUA [KL-XARG B25]	0.333	0.254	0.316	0.226	0.233
AGUGAUGUUCCUCCUCUUGGUCUUGGUGGGCGAGGACCGGUACGGCCGCCACUCGAUGUGGGAGUGAUGUUUCCAUAUGAUGUUU [Tryptophan A]	0.568	0.58	0.621	0.675	0.401
AGUGAUGUUGAGUUAUGUUAGUGAAGUGAUCGAGGACCGGUACGGCCGCCACUCGAGUGAUGAGUGAGUGAUGUUUGUUUAGUGA [bvbmullin]	0.639	0.487	0.857	0.692	0.404
AGUGAUGUUGUGUGAUGUUAGUGAAGUGAUCGAGGACCGGUACGGCCGCCACUCGAGUGAUGAGUGAGUGAUGUUUGUUUAGUGG [#17 K4 Tryptophan A Same State]	0.258	0.124	0.206	0.186	0.139
AGUGAUGUUGUGUUAUGCUAGGGAAGUGAUCGAGGACCGGUACGGCCGCCACUCGAGUGAUGAGUGAGUGAUGUUUGUUUAGGGA [sdsmullin]	1.1	0.48	0.961	0.844	0.49
AGUGAUGUUUCUUUUAAGAGUGAUGUUUUUCGAGGACCGGUACGGCCGCCACUCGAGUGAUGAGUGCGUUGUUGUGAUGUUUAGU [#12 K4 Tryptophan A Exclusion]	0.461	0.313	0.425	0.459	0.303
AGUGGUGUUGUGUUAUGUUUGGGAAGUGAUCGAGGACCGGUACGGCCGCCACUCGAGUGAUGAGUGAGUGAUGUUUGUUUAGGGA [whbob_SS_Tryp_A_m10]	0.927	0.636	1.53	0.646	0.658
AGUGUGCAAAAGCACACUCAGAACAAGGACAAGGAUAUCUACUAAUAGAGAAGGUGUCCUUUCCUUAGUGAUGUUAAGGAACUGA [Omei KL FMN A SS D v5]	0.278	0.524	0.64	0.68	0.615
AGUGUUGUUUUUUUUAAGAGUGAUGUUUUUCGAGGACCGGUACGGCCGCCACUCGAGUGAUGAGUGAGGUGUGGUGAUGAUUAGU [#10 K4 Tryptophan A Exclusion]	0.816	0.79	1.05	0.664	0.337
AGUUCUUGCCGAAGGAGCGAGGCAGAGUGAUGUUCUGCAGAGGUCGAAAGACCUCAACUGCCUCAGGUAGGUCGCGGCAUGAACA [Omei KL Arginine B Exc A v6]	0.291	0.298	0.563	0.469	0.476
AUAAACUUGCAGUGAUGUUGCAAGUAAGACUAGGAUAUCAGGAAACUGAGAAGGAGUCAUCUCCUUCAACUGCAAGAAUGAAGGA [[K1]-[K2]-[F1]-[F2]-[F]'-[K]'-[F]''_Design4]	0.147	0.108	0.129	0.104	0.133
AUAGGAGUGAUGUUCCUUAGUCUCUCCGAUACCAGUAUGGAAACAUACCCUUGGCAGCGGGAGACCGCAGAUUAGGAAACUAGUC [Theophylline A K4 5]	0.178	0.179	0.185	0.205	0.172
AUAGGCUAGCGAAACGCUAGCCUAACAGAUACCAGUCGCGAAAGCGACCCUUGGCAGCUGCUGAGUGAUGUUCAGGUGAAUGAAU	0.442	0.285	0.418	0.403	0.374
AUAUAUAACUGAAGGAGCGAGGCCAAAUAUAUAUAGUGAUGUUAUAUAAAGGCACAUAGGCCUCAGGUAGGUCGCAGAAUAAUAU [AstrosExyArGB#1]	0.284	0.274	0.277	0.271	0.281
AUCGUUGUCUGAGGAUAUCGGUUAUCUGUAGUGAUGUUACAGUAUAUUGAUAUUAAAGAUUCUAUUCGAGAAGGCAGACAACGUA [JR_Nu3_ExcFMNB_Sub023]	0.0755	0.0627	0.0672	0.0579	0.0619
AUGAGGAGCAGUGAUCCUACUCCAUGGGAAGGAGCGUAGGAUACUACAGGUAGGUCGCCCAGUGAUGUUGGGCGCGUGCUCUUGG [Isatquesra]	0.14	0.13	0.135	0.148	0.15
AUGCAGUGAUGUUGCUUUGUAUAAACAGAUACCAGUGAAUUUUAACACCCUUGGCAGCUGAUAGAUUCUUAAUUCUAUUAUAUAA [JR_SSTheophyA_Sub020]	0.164	0.189	0.165	0.197	0.14
AUGCAUGAAAGUGAUGUUUUCAGUAAUGGAAAGGAUAUGCGCUGGUGCAGAAGGUUCUAAAGUGCAUCCAACAACUGGGUAGGCC [theeternabot_sameState_KL_FMN_A_36]	0.218	0.316	0.322	0.273	0.31
AUGCGACGUGCGGCCGCCACUCGGAUGCGAGUGAUGUUCGCGGGCCGGCCGCAAGGCCGGCAUUCGAGGACCGGGCAUCGGUGUA [#2 Same State - Tryptophan B Attempt #1 (HarryS)]	0.42	0.496	0.546	0.493	0.116
